From FireProtDB (doi:10.1021/bi00181a602)
Several values for one entry are separate records, joined by “and”; a condition that tells them apart may be missing. Identical values can stand only once.

Settings: Mus musculus; pH 3.5; 23 °C; GdnHCl; Fluorescence; citrate-phosphate 100 mM; reversible: yes; whole UniProt chain shown

B1: Neurotrophin-3 wild type, P20181 (protein)
chain: MSILFYVIFLAYLRGIQGNSMDQRSLPEDSLNSLIIKLIQADILKNKLSKQMVDVKENYQSTLPKAEAPREPEQGEATRSEFQPMIATDTELLRQQRRYNSPRVLLSDSTPLEPPPLYLMEDYVGNPVVANRTSPRRKRYAEHKSHRGEYSVCDSESLWVTDKSSAIDIRGHQVTVLGEIKTGNSPVKQYFYETRCKEARPVKNGCRGIDDKHWNSQCKTSQTYVRALTSENNKLVGWRWIRIDTSCVCALSRKIGRT
Which results are given for B1?
denaturant m value: 3.4 kcal/mol/M and 4 kcal/mol/M and 5.1 kcal/mol/M; denaturant midpoint (higher = more stable): 1.4 M and 2.2 M and 2.1 M; unfolding free energy: 12.7 kcal/mol and 17 kcal/mol and 19 kcal/mol
